Measured values reported in patent US20200297842A1 (published 2020).

Experiments:
[1] = molecular target: T1, human SIRPγ expressed on cells (human, UniProt Q9P1W8 29-387); assay: flow cytometry on activated human CD3 T cells expressing SIRPγ
T1 construct: Endogenous SIRPγ on Jurkat T-ALL cells and on human CD3+ T cells; also called SIRPγ expressing Jurkat cells; Human T Cells Expressing SIRPγ
Experimental: (§1) Human CD3 T cells, isolated from peripheral blood mononuclear cells (Astarte Biologics) were incubated in 96-well V-bottom plates at 2.5 \ 10⁵ cells/well for 1 h at 37° C., 5% CO₂ with serial dilutions of SIRP mAbs in binding buffer containing 1 mM EDTA (Sigma Aldrich), 1% FBS (Biowest) in PBS (Corning). The cells were then washed and stained for 45 min under the same conditions with donkey anti-mouse IgG fluorescein isothiocyanate (FITC)-linked secondary antibody (Jackson ImmunoResearch Laboratories). The cells were subsequently stained with anti-CD3 conjugated to 3-carboxy-6,8-difluoro-7-hydroxycoumarin (Pacific Blue) fluorophore (BioLegend) for 30 min on ice, washed and analyzed by flow cytometry (Attune, Life Technologies). Binding was assessed as the median FITC fluorescence intensity of CD3⁺ cells, subtracted from CD3⁺ cells stained with the secondary antibody only. All SIRP antibodies were generated in-house except for LSB2.20 (BioLegend). For activated T cells, prior to the binding assay CD3 T cells were activated for 72 h in a 96-well flat-bottom plate coated with 10 μg/ml anti-CD3 (clone UCHT1; BioLegend), at 1×10⁵ cells/well in the presence of 0.5 μg/ml anti-CD28 (clone CD28.2; BioLegend).

[2] = molecular target: T1, human SIRPγ expressed on cells; assay: flow cytometry on naive human CD3 T cells expressing SIRPγ
Experimental: as §1

[3] = molecular target: T1, human SIRPγ expressed on cells; assay: flow cytometry on naive human CD3 T cells expressing SIRPγ (second column)
Experimental: as §1

[4] = molecular target: T2, Fc tagged human SIRPα (ACRO # SIG-H5251, genotype variant 1) (human, UniProt P78324 31-370, limits assumed); assay: ELISA, plate-coated Fc tagged human SIRPα; apparent Kd
T2 construct: Bought protein; also called Fc tagged human SIRP alpha; recombinant human SIRPα; not shown: Fc tag
Experimental: The binding of anti-SIRP monoclonal antibodies (mAbs) of the present disclosure to SIRP alpha (SIRPα) was determined by solid phase ELISA using an Fc tagged human SIRP alpha. Binding by soluble anti-SIRP antibodies was measured in vitro.
Fc tagged human SIRPα (ACRO # SIG-H5251, genotype variant 1) is adsorbed to high-binding microtiter plates at a concentration of 1 μg/ml diluted in phosphate buffered saline (PBS) overnight at 4° C. The coating solution is removed, the wells are washed and then blocked with 75% casein in PBS containing 0.5% Tween 20 (PBST) for 60 minutes at room temperature while shaking. Blocking solution is removed, the wells are washed and incubated for 60 minutes at room temperature while shaking with either murine or human anti-SIRP mAbs diluted in PBST at a starting concentration of 30 μg/ml and reducing the concentration in 3-fold serial dilutions. Wells are washed three times with PBST and incubated for 60 minutes at room temperature while shaking with an HRP-labeled donkey anti-mouse or anti-human secondary antibody (Jackson ImmunoResearch Laboratories) diluted 1:10,000 in PBST. The wells are washed and then incubated with peroxidase substrate and the absorbance at 450 nm measured. The apparent affinities were calculated using a non-linear fit model (GraphPad Prism).

[5] = molecular target: T3, Fc tagged human SIRPγ (ACRO # SIG-H5253) (human, UniProt Q9P1W8 29-360); assay: ELISA, plate-coated Fc tagged human SIRPγ; apparent Kd
T3 construct: Bought protein; it includes the transmembrane and cytoplasmic part, which a soluble Fc fusion would not carry; also called Fc tagged human SIRP gamma; recombinant human SIRP gamma; not shown: Fc tag
Experimental: The binding of anti-SIRP antibodies of the present disclosure to SIRP gamma (SIRPγ) was determined by ELISA using an Fc tagged human SIRPγ. Binding by soluble anti-SIRP antibodies was measured in vitro.
(§2) Fc tagged human SIRPγ (ACRO # SIG-H5253) is adsorbed to high-binding microtiter plates at a concentration of 1 μg/ml in phosphate buffered saline (PBS) overnight at 4° C. The coating solution is removed, the wells are washed and then blocked with 75% casein in PBS containing 0.5% Tween 20 (PBST) for 60 minutes at room temperature while shaking. Blocking solution is removed, the wells are washed and incubated for 60 minutes at room temperature while shaking with anti-SIRP mAbs diluted in PBST at a starting concentration of 30 μg/ml and reducing the concentration in 3-fold serial dilutions. Wells are washed three times with PBST and incubated for 60 minutes at room temperature while shaking with an HRP labeled donkey anti-mouse or anti-human secondary antibody (Jackson ImmonResearch Laboratories) diluted 1:10,000 in PBST. The wells are washed and then incubated with peroxidase substrate and the absorbance at 450 nm determined. The apparent affinities were calculated using a non-linear fit model (GraphPad Prism).

[6] = molecular target: T4, human SIRPα expressed on cells (human, UniProt P78324 31-504); assay: flow cytometry on human monocyte-derived macrophages; apparent Kd
T4 construct: whole, on cells; Endogenous SIRPα of THP-1 cells and of donor-derived macrophages and dendritic cells; also called SIRPα expressing THP-1 cells; cell-expressed SIRPα on dendritic cells and/or macrophages
Experimental: (§3) Human CD14⁺ monocytes, isolated from peripheral blood mononuclear cells (Astarte Biologics) were differentiated in vitro for seven days into macrophages or dendritic cells. For macrophage differentiation, monocytes were incubated in AIM-V media (Life Technologies) supplemented with 50 ng/ml M-CSF (Biolegend) for seven days. For dendritic cell differentiation, monocytes were incubated in AIM-V media (Life Technologies) in the presence of 10% human AB serum (Valley Biomedical), 200 ng/ml GM-CSF (Biolegend) and 50 ng/ml IL-4 (Biolegend). The cells were incubated for 1 h at 37° C., 5% CO₂ with serial dilutions of SIRP mAbs in binding buffer containing 1 mM EDTA (Sigma Aldrich) and 1% FBS (Biowest) in PBS (Corning). The cells were then washed and stained for 45 min under the same conditions with donkey anti-mouse IgG fluorescein isothiocyanate (FITC)-linked secondary antibody (Jackson ImmunoResearch Laboratories). The cells were subsequently stained with anti-CD14 or anti-CD11c conjugated to Alexa Fluor 647 fluorophore (Life Technologies and Biolegend, respectively) for 30 min on ice, washed and analyzed by flow cytometry (Attune, Life Technologies). Binding was assessed as the median FITC fluorescence intensity of CD14⁺ or CD11c⁺ cells, subtracted from cells stained with the secondary antibody only.

[7] = molecular target: HIS tagged human SIRPα (ACRO # SIG-H5225) (human) (UniProt P78324); assay: blocking ELISA: mAb on plate-coated HIS tagged human SIRPα, then Fc tagged human CD47
[8] = molecular target: T4, human SIRPα expressed on cells; assay: flow cytometry on human monocyte-derived dendritic cells; apparent Kd
Experimental: as §3

[9] = molecular target: T3, Fc tagged human SIRPγ (ACRO # SIG-H5253); assay: blocking ELISA: mAb with human SIRPγ (ACRO # SIG-H5253) on plate-coated HIS tagged human CD47
Experimental: HIS tagged human CD47 (ACRO # CD7-H5227) is adsorbed to high-binding microtiter plates at a concentration of 2 μg/ml diluted in PBS overnight at 4° C. The coating solution is removed, the wells are washed and then blocked with 75% casein in PBS containing 0.5% Tween 20 (PBST) for 60 minutes at room temperature while shaking. Blocking solution is removed, the wells are washed and incubated for 60 minutes at room temperature while shaking with anti-SIRP mAbs diluted in PBST at a starting concentration of 30 μg/ml and reducing the concentration in 3 fold serial dilutions and 0.5 μg/ml of human SIRPγ (ACRO # SIG-H5253). Wells are washed three times with PBST and incubated for 60 minutes at room temperature while shaking with an HRP labeled donkey anti-mouse or anti-human secondary antibody (Jackson ImmunoResearch Laboratories) diluted 1:20,000 in PBST. The wells are washed and then incubated with peroxidase substrate and the absorbance at 450 nm determined. The IC₅₀ was calculated using a non-linear fit model (GraphPad Prism).

[10] = molecular target: T3, Fc tagged human SIRPγ (ACRO # SIG-H5253); assay: ELISA, plate-coated Fc tagged human SIRPγ
Experimental: as §2

[11] = molecular target: T1, human SIRPγ expressed on cells; assay: flow cytometry on Jurkat cells expressing SIRPγ, increasing mAb concentrations (FIG. 4A)
Experimental: FIG. 4A-FIG. 4B. Binding of SIRP mAbs to Jurkat T cells Expressing SIRPγ. Binding of SIRP1, SIRP2, SIRP3, SIRP4 and SIRP9 to Jurkat T-ALL cells was determined. Cells were incubated with increasing concentrations of antibody FIG. 4A; or 10 μg/ml of the anti-SIRP antibodies for 1 hr; FIG. 4B. Cells were washed and then incubated with Alexaflour 647-labelled secondary antibody for 1 hr. Cells were washed and antibody binding measured using flow cytometry.
Jurkat cells were incubated for 60 min at 37° C., 5% CO₂ with increasing concentrations of the anti-SIRP mAbs diluted in phosphate buffered saline (PBS), pH 7.2. Cells were then washed with PBS and incubated for an additional hour with Alexa Fluor-647 labeled donkey anti-mouse antibody (Jackson ImmunoResearch Laboratories) in PBS. Cells were washed and binding analyzed using a C6 Accuri Flow Cytometer (Becton Dickinson). Alternatively, the cells were incubated for 1 h at 37° C. with the saturating concentration of 10 μg/ml of SIRP mAbs in binding buffer containing 1 mM EDTA (Sigma Aldrich), 1% FBS (Biowest) in PBS (Corning). The cells were then washed and stained for 45 min under the same conditions with donkey anti-mouse IgG fluorescein isothiocyanate (FITC)-linked secondary antibody (Jackson ImmunoResearch Laboratories). The cells were then washed and analyzed by flow cytometry (Attune, Life Technologies).

T1 sequence (Q9P1W8 29-387): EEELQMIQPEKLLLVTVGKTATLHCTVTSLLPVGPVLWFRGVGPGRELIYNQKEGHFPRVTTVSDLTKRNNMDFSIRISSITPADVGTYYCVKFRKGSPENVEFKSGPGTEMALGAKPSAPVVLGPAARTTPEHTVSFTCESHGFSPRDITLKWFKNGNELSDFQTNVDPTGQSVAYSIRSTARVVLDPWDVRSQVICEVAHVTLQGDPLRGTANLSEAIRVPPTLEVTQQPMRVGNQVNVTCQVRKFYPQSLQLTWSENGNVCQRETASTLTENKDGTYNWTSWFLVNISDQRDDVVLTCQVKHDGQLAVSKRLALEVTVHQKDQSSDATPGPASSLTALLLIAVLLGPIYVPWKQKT
T4 sequence (P78324 31-504): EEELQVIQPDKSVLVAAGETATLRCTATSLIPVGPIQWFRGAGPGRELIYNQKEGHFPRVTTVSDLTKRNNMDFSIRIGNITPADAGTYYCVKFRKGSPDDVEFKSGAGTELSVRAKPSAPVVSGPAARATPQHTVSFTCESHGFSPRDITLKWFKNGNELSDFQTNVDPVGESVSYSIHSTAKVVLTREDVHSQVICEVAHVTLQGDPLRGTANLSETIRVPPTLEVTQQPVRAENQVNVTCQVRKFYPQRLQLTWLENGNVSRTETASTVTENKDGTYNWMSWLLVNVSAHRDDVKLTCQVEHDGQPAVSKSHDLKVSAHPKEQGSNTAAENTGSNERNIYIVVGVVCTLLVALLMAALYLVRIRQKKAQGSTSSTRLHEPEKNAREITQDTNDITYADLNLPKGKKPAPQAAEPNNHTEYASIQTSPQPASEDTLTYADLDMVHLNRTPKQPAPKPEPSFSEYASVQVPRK
T3 sequence (Q9P1W8 29-360 limits assumed): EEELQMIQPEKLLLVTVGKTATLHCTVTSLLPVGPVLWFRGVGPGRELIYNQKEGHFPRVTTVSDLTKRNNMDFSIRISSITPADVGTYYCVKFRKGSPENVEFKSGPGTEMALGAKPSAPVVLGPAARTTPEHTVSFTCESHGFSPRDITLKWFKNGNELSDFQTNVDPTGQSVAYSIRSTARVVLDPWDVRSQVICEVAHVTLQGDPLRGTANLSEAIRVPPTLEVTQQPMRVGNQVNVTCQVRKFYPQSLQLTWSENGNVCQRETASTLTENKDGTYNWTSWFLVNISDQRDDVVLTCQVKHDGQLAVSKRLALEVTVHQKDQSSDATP
T2 sequence (P78324 31-370 limits assumed, change not shown, form in doubt): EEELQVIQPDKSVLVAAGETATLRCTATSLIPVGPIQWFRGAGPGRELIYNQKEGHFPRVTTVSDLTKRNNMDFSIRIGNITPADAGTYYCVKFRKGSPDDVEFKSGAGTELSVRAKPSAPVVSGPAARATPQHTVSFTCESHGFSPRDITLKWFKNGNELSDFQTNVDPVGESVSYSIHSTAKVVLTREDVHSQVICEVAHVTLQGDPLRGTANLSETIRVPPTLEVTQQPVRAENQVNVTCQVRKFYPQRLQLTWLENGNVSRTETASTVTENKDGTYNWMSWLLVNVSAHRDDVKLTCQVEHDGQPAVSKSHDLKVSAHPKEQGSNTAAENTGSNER
HIS tagged human SIRPα (ACRO # SIG-H5225) (human), sequence (P78324 31-370): as the sequence (P78324 31-370 limits assumed, change not shown, form in doubt) above

Molecule	Kd [1]	Kd [2]	Kd [3]	Kd [4]	Kd [5]	Kd [6]	IC50 [7]	Kd [8]	IC50 [9]	binding result [10]	binding result [11]
LSB2.20 (antibody)	0.95 nM	0.75 nM	1.26 nM	–	–	–	–	–	–	–	–
SIRP4 (antibody, V domains shown, detected with anti-mouse secondary antibody in the cell assays) VH: EVQLQQSGPDLVKPGASVKISCKASGYSFTDYFLNWVKQSHGKSLEWIGRINPYNGDSFINQNFRDKATLTVDKSSTTAHMDLLSLTSEDSAIYYCGRGGYDGYFIAYFDYWGQGSLVTVSA VL: DIKLTQSQSSMYSSLGQRVTITCKASQDINSHLSWFQEKPGKSPKTLIYRANRLADGVPSRFSGSGSGQDYFLTISSLEYEDVGIYYCLQYDEFPYTFGGGTKLEIK	–	–	–	0.161 nM	0.274 nM	0.0207 nM	0.71 nM	0.05 nM	0.44 nM	–	–
KWAR-23 (antibody, V domains shown) VH: EVQLQQSGAELVKPGASVKLSCTASGFNIKDYYIHWVQQRTEQGLEWIGRIDPEDGETKYAPKFQDKATITADTSSNTAYLHLSSLTSEDTAVYYCARWGAYWGQGTLVTVSS VL: QIVLTQSPAIMSASPGEKVTLTCSASSSVSSSYLYWYQQKPGSSPKLWIYSTSNLASGVPARFSGSGSGTSYSLTISSMEAEDAASYFCHQWSSYPRTFGAGTKLELK	0.00622 nM	0.00404 nM	0.00159 nM	–	–	–	–	0.0234 nM	–	–	–

The next lines start with the values.

Kd [1]	Kd [2]	Kd [3]	Kd [4]	Kd [5]	Kd [6]	IC50 [7]	Kd [8]	IC50 [9]	binding result [10]	binding result [11]	Molecule
0.263 nM	–	1.41 nM	0.583 nM	0.51 nM	0.0937 nM	–	–	–	–	–	SIRP9 (antibody, V domains shown, detected with anti-mouse secondary antibody in the cell assays) VH: EVQLQESGAELVRPGASVKLSCKALGYTFTDYEIHWVKETPVYGLEWIGDIHPGSGGTANNQKFKGKATLTADKSSNTAYMELSSLTSEDSAVYYCTRAVSGYYAMDYWGQGTSVTVSS VL: DIQMTQSSSSFSGSLGDRLTINCKASEDIYDRVAWYQQKPGNAPRLLISGTASLETGVLSRFSGSGSGKDYTLSINGLQAEDVATYYCQQYWTTPWTFGGGTKLEIK
–	–	–	–	–	–	–	–	–	no binding (tested: 30 µg/ml)	no binding	SIRP1 (antibody, mouse IgG1, kappa, V domains shown, Hybridoma-derived mouse mAb) VH: QVQLQQSGAELMKPGASVKISCKATGYSFTKYWIEWVKQRPGHGLEWIGEILPGSVITNYNEKFKGKATFTADTSSNTVYMQLSSLTSEDSAVYYCTKWGLYDSDDGVDYWGQGTTLTVSS VL: ENVLTQSPAIMSASLGEKVTMSCRASSGVNYMYWYQQKSDASPKLLIYYTSILAPGVPARFSGSGSGNSYSLTISSMEGEDAATYYCQQFTSSPYTFGGGTKLEIKR
